US20250206837A1 (ELIXIRON IMMUNOTHERAPEUTICS HONG KONG, published 2025)
Where “and” joins values, the source holds several entries; their conditions need not be identical. Identical values can stand only once.

What was measured:
[1] = molecular target: T1, Recombinant His-tagged human CD36.ECD protein (Sino Biological) (human, UniProt P16671 30-439); test: BLI (Octet), antibody on AHC sensor, His-tagged hCD36.ECD in solution, 1:1 fit
T1 construct: Bought protein; also called hCD36.ECD; hCD36; not shown: His tag
T1 sequence (P16671 30-439 limits assumed): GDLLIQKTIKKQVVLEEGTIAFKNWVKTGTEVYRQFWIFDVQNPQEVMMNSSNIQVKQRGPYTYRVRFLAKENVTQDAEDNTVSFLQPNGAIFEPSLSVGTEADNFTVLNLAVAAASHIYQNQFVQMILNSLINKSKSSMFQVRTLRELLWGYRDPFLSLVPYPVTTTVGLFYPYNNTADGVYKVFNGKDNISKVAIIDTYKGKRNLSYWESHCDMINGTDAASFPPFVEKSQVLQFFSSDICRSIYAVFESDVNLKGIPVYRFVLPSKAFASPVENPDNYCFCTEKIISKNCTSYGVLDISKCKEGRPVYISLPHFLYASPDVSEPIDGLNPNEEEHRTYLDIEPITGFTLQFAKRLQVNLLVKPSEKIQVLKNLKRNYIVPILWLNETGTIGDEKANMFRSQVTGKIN
Protocol: BLI assay materials and method: Kinetic rate constants, ka and kd, for binding of the anti-CD36 antibodies to human CD36 were measured by Bio-Layer Interferometry (BLI) (ForteBio Octet RED96). […] Rate constants were calculated by curve fitting analyses (1:1 Langmuir model) of binding response with a 2.5-minute association and 5-minute dissociation interaction time.

[2] = molecular target: T2, Recombinant His-tagged mouse CD36.ECD protein (Sino Biological) (mouse, UniProt Q08857 30-439); test: ELISA, coated mouse CD36.ECD (FIG. 1D)
T2 construct: Bought protein; also called mCD36.ECD; mCD36; not shown: His tag
T2 sequence (Q08857 30-439 limits assumed): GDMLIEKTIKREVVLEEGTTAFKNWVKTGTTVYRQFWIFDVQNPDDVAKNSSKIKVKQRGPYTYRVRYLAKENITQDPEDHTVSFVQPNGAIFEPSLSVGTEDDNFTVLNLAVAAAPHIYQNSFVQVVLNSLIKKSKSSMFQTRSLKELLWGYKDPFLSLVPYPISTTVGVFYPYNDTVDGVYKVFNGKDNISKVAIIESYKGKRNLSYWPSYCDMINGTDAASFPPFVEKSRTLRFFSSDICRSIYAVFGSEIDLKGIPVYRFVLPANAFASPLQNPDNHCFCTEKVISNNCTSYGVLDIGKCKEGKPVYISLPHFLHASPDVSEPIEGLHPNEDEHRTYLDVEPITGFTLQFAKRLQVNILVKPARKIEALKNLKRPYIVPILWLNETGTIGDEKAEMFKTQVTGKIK
Protocol: (§1) ELISA materials and methods: Recombinant His-tagged human CD36.ECD protein or His-tagged mouse CD36.ECD protein (both from Sino Biological) was immobilized on 96 well microtiter plate at a concentration of 1 μg/mL in Coating Solution (SeraCare) overnight at 4° C. The wells were washed with wash solution (0.05% Tween20 in PBS) and blocked with 1% BSA in PBS. Serial dilutions of anti-CD36 antibodies were added to wells. After incubation at 37° C. for 1 h, the wells were washed with wash solution. Peroxidase-conjugated Goat anti-human kappa Light chain antibody (Sigma) was applied to each well at 37° C. for 1 h incubation. After washing, the wells were developed with TMB substrate for 5-10 min at room temperature and then stopped with 1 N HCl. Thereafter absorbance was measured at 450 nm and 650 nm. EC50 values were calculated through GraphPad Prism7.
(§2) ELISA data plots showing binding of anti-CD36 antibodies to recombinant human CD36.ECD or mouse CD36.ECD coated on ELISA plates are depicted in FIG. 1C and 1D, respectively.

[3] = molecular target: T1, Recombinant His-tagged human CD36.ECD …; test: ELISA, coated human CD36.ECD (FIG. 1C)
Protocol: as §1, §2

[4] = molecular target: T1, Recombinant His-tagged human CD36.ECD …; test: ELISA, coated human CD36.ECD (FIG. 2E)
Protocol: as §1
(§3) The competitor anti-CD36 antibody ONA, which is derived from clone “ONA-0-v1” as disclosed in WO2021176424A1 in hIgG4-S228P-FALA format.

[5] = molecular target: T3, mouse CD36-His overexpressed on stable F293 cells (mouse, UniProt Q08857 1-472); test: flow cytometry, F293 cells overexpressing mouse CD36
T3 construct: Gene segment from Sino Biological; also called F293/mCD36; mCD36; not shown: His tag
T3 sequence (Q08857 whole entry): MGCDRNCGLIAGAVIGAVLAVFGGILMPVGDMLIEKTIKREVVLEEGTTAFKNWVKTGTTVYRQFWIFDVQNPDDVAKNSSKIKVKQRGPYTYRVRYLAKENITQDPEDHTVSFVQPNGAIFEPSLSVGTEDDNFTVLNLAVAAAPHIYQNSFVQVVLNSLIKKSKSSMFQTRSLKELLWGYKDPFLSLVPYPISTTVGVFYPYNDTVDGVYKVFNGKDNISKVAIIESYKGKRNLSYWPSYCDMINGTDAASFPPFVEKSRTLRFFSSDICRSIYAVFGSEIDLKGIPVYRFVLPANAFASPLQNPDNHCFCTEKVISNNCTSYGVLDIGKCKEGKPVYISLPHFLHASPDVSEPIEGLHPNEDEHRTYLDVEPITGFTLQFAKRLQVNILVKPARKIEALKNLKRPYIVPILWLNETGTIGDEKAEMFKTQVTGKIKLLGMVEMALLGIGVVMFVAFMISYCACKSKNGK
Source text: (§4) After washing with FACS buffer (2% FBS in PBS), the cells were stained with anti-human IgG-Alexa Fluor 647 and analyzed by Attune NxT Flow Cytometer (Thermo Scientific).

[6] = molecular target: T4, full-length human CD36-Flag overexpressed on stable F293 cells (human, UniProt P16671 2-472); test: flow cytometry, F293 cells overexpressing human CD36
T4 construct: Gene segment from Sino Biological; also called F293/hCD36; hCD36; not shown: Flag tag
T4 sequence (P16671 2-472): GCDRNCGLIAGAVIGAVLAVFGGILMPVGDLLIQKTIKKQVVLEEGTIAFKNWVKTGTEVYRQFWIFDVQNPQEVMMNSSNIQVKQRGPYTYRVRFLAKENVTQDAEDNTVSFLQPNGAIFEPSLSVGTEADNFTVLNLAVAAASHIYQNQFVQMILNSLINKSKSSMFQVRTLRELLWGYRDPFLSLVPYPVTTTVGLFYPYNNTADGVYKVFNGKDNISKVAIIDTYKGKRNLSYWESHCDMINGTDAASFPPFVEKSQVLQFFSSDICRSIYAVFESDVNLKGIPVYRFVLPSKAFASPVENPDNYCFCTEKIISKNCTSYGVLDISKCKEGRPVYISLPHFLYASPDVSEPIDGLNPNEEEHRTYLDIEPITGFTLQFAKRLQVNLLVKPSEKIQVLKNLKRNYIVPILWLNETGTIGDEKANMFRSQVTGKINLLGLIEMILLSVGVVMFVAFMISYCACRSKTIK
Source text: as §4

[7] = molecular target: T5, rhesus CD36-His overexpressed on stable F293 cells (rhesus, UniProt P16671 2-472 (human entry)); test: flow cytometry, F293 cells overexpressing rhesus CD36
T5 construct: Gene segment from Sino Biological; also called F293/rhesusCD36; not shown: His tag
T5 sequence (P16671 other isoform, or with tags, fused parts or gaps): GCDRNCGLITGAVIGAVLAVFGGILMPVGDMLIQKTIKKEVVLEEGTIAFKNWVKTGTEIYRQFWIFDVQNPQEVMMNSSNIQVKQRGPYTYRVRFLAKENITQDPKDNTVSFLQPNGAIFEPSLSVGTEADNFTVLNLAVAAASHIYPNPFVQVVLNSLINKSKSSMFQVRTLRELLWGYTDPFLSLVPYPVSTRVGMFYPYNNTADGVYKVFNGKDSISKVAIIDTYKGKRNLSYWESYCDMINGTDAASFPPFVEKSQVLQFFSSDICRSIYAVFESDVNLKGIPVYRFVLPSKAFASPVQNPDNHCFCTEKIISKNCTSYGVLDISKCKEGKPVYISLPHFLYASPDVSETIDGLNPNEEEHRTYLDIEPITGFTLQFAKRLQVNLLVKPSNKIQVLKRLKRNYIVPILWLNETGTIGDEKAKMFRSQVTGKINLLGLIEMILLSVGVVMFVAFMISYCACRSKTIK
Source text: as §4

[8] = molecular target: T3, mouse CD36-His overexpressed on stable …; test: cell-based or functional assay
[9] = molecular target: T4, full-length human CD36-Flag …; test: cell-based or functional assay
[10] = molecular target: T1, Recombinant His-tagged human CD36.ECD …; test: ELISA, coated human CD36.ECD (FIG. 2F)
Protocol: as §1, §3

[11] = molecular target: T1, Recombinant His-tagged human CD36.ECD …; test: ELISA, coated human CD36.ECD (FIG. 2A)
Protocol: as §1, §3

[12] = molecular target: T1, Recombinant His-tagged human CD36.ECD …; test: hCD36 ELISA, plate coated with human CD36.ECD, antibody titrated, OD (450-650) nm
Protocol: as §1, §3

B1: A8A (antibody, human IgG1, kappa, N297A, V domains shown)
VH: EVQLVESGGGLVQPGGSLRLSCAASGFTISSFGIHWVRQAPGKGLEWVAWIAPYGGYTYYADSVKGRFTISADTSKNTAYLQMNSLRAEDTAVYYCARSFFGYFDYWGQGTLVTVSS
VL: DIQMTQSPSSLSASVGDRVTITCRASQDVSNWVAWYQQKPGKAPKLLISYANSLYSGVPSRFSGSGSGTDFTLTISSLQPEDFATYYCQQHSNLPLTFGQGTKVEIKR
notes: Full-length human IgG1-N297A, kappa; also called A8A (IgG1)
Binder B1 has a Kd [1] of 3.42 nM, a koff [1] of 0.00462 s⁻¹ and a kon [1] of 1.35e+06 M⁻¹ s⁻¹. It also gave an EC50 [2] of 0.94 nM and an EC50 [3] of 5.17 nM.

B2: 117_101H (antibody, V domains shown)
VH: EVQLVESGGGLVQPGGSLRLSCAASGFTISSFGIHWVRQAPGKGLEWVAWIAPYGGYTYYADSVKGRFTISADTSKNTAYLQMNSLRAEDTAVYYCARSFHGYFDYWGQGTLVTVSS
VL: DIQMTQSPSSLSASVGDRVTITCRASQDVSNWVAWYQQKPGKAPKLLISYATSLYSGVPSRFSGSGSGTDFTLTISSLQPEDFATYYCQQHSNAPLTFGQGTKVEIKR
notes: full-length IgG, human kappa
B2 was tested, and the EC50 [4] was 1.6 nM.

B3: 117_57E (antibody, V domains shown)
VH: EVQLVESGGGLVQPGGSLRLSCAASGFTISSFGIHWVRQAPGKGLEWVAWIAPYGGETYYADSVKGRFTISADTSKNTAYLQMNSLRAEDTAVYYCARSFFGYFDYWGQGTLVTVSS
VL: DIQMTQSPSSLSASVGDRVTITCRASQDVSNWVAWYQQKPGKAPKLLISYATSLYSGVPSRFSGSGSGTDFTLTISSLQPEDFATYYCQQHSNAPLTFGQGTKVEIKR
notes: full-length IgG, human kappa
With B3 the EC50 [5] was 0.331 mg/L and 0.279 mg/L, the EC50 [6] was 0.11 mg/L and 0.091 mg/L and the EC50 [7] was 0.419 mg/L and 0.362 mg/L. For the same binder, the “oxLDL uptake IC50 (nM), F293/mCD36” value [8] was 0.796 nM, the “oxLDL uptake IC50 (nM), F293/hCD36” value [9] was 0.419 nM and the EC50 [10] was 0.206 nM. For the same binder, the EC50 [11] was 0.0492 nM.

B4: 117_101S (antibody, V domains shown)
VH: EVQLVESGGGLVQPGGSLRLSCAASGFTISSFGIHWVRQAPGKGLEWVAWIAPYGGYTYYADSVKGRFTISADTSKNTAYLQMNSLRAEDTAVYYCARSFSGYFDYWGQGTLVTVSS
VL: DIQMTQSPSSLSASVGDRVTITCRASQDVSNWVAWYQQKPGKAPKLLISYATSLYSGVPSRFSGSGSGTDFTLTISSLQPEDFATYYCQQHSNAPLTFGQGTKVEIKR
notes: full-length IgG, human kappa
Binder B4 has an EC50 [4] of 0.929 nM.

B5: 57T (antibody, V domains shown)
VH: EVQLVESGGGLVQPGGSLRLSCAASGFTISSFGIHWVRQAPGKGLEWVAWIAPYGGTTYYADSVKGRFTISADTSKNTAYLQMNSLRAEDTAVYYCARSFFGYFDYWGQGTLVTVSS
VL: DIQMTQSPSSLSASVGDRVTITCRASQDVSNWVAWYQQKPGKAPKLLISYATSLYSGVPSRFSGSGSGTDFTLTISSLQPEDFATYYCQQHSNAPLTFGQGTKVEIKR
notes: the sheet prints only 57T
B5: no binding (tested: about 20 nM) [12].

B6: 117_101Y (antibody, V domains shown)
VH: EVQLVESGGGLVQPGGSLRLSCAASGFTISSFGIHWVRQAPGKGLEWVAWIAPYGGYTYYADSVKGRFTISADTSKNTAYLQMNSLRAEDTAVYYCARSFYGYFDYWGQGTLVTVSS
VL: DIQMTQSPSSLSASVGDRVTITCRASQDVSNWVAWYQQKPGKAPKLLISYATSLYSGVPSRFSGSGSGTDFTLTISSLQPEDFATYYCQQHSNAPLTFGQGTKVEIKR
notes: full-length IgG, human kappa
Work on B6 yielded an EC50 [4] of 0.355 nM.
